Experiment: yeast display, Sf9 membrane polyspecificity reagent, FACS + sequencing; frameworks hold sequencing errors
Method in brief: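 A nanobody's polyreactivity label depends on the gate it was sorted from. Yeast display cells were stained with 10% biotinylated, detergent-solubilized Sf9 membrane reagent for 1 hour at 4 °C, enriched on streptavidin microbeads and sorted by FACS. The low and high (top ~1%) gates were set on anti-HA fluorescence for expression and streptavidin fluorescence for reagent binding.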

Row | Sequence | polyreactivity (PSR sort gate)
1 | QVQLVESGGGLVQAGGSLLLSCAASGSTLFLYAMGWYRQAPGKERELVAGITYSGSTYADSVKGRFTISRDNAKNTVYFQMNSLKPEDTAVYYCAKDGYWNEEYSVGMDYWGQGTQVTVSS | low polyreactivity
2 | QVQLVESGGGLVQAGGSLRLSCAASGRTFDYNAMGWYRQAPGKERELVAAISSSGGTTYYADPVKGRFTISRDNAKNTVYLQMNSLKPEDTAVYYCNADVGHKYKRRVSLYYWGQGTQVTVSS | low polyreactivity
3 | QVQLEESRRGLVQARGSLRLSCASSGYIFLYYALGCYRQAPGKERELVAAITTRGGRTYYADSVKGRFTISRDNAKNTVYVQMNSLKPEDTAVYYCAVEVSWSYYSYGYWGQGTQVTVSS | low polyreactivity
4 | QVQLVESGGGLVQAGGSLRLSCAASGSTFITNAMGGYRQAPGKERELVATISRSGGRTYYADSVKGRFTISRDNAKNSVYLEMNSLNPEDTAVFYCAKRYGSKFEYWGLGTQVTVSS | high polyreactivity
5 | QVQLVESGGGLVQAGGSLRLSCAASGSTFTENAMGWYRQAPGKERELVATISTSDGSTHYADSVKGRFTISRDNAKNTVYLQMNSLKPEDTAVYYCAARPDYFLWHGYYTRRHYYWGQGTQVTVSS | low polyreactivity
6 | QVQHVESGAGLVQAGGSLRLSCAASGSIFEINAMGWYRQAPGKERELVAAITGSGGSTHYADSVKVRFTISRDNAKNTVYLQMNSLKPEDTAVYYCAAVPRYQYGYWGQGNQVTVSS | low polyreactivity
7 | QVQLVESGGGLVQAGGSLRLSCAASGSTSYLYPMGWDRQAPGKERELVAAISWNGGSTYYADSVKGRFTISLDNAKNTVYLQMNSLKPEDTAVYYCAASVHATSFSGGRHWFKLYYWGQGTQVTVSS | high polyreactivity
8 | QVQLVESGGGLVQAGGSLRLSCAASGSTFFRNAKGWYRQAPGKERELVAANSSTGGTTYYAHSVKGRFTISRDNAQNTVYLQMNSLKPEETAVYYCAAAGYIENDGYVQKFEYWGQGTQVTVSS | low polyreactivity
9 | QVQLVESGGGLVQAGGSLRIICAASGSIFPYYAKGWYRQAPGKERELVARITITGGITYYADSVKGRFSISRDNAKNTVYLQMHSLKPEDTAVYYCAADRDWQYSFRHSVYVYDYDFWGQGTQVTVSS | low polyreactivity
10 | QVQLVESGGGLVQAGGSLRLSCAASGSTISPNSMGWYRQAPGKERELVAAISSDASTNYADSVKGRFTISRDNAKNTVYLQRNCLTPDDTALYYCAADLWTLIYLTDTYGHWGQGTQVTVSS | low polyreactivity
11 | QVQLVESGGGLVQAGGSLRLSCAASGSTFQVYGMGWYRQAPGKERELGAAISRSGGRTYYADSVKGRFTISRDNAKNTVYLQMNSLKPEDTAVYYCNAPISYYDEYYYWGQGTQVTVSS | high polyreactivity
12 | QVQLVESGGGLVQAGGSLRLSCAASGFTIRRNAMGWYRQAPGKERELVAAISRSGGSTYADSVKGRFTISRDNAKNTVYLQMNSLKPEDTAVYYFASDHSDYRYTYTALIAEFYYWGQGTQVTVSS | low polyreactivity
13 | QVQLVESGGVLVQAGGSLRLTCAASGRIFQNYAMGWYRQAPAKERELDATISSGVSTYYADSVKGRFTISRDNAKNTVYLQMNSLKPEDTAVYYCAAYVPWFEMDYWGQGTQVTVSS | low polyreactivity
14 | QVQLVESGGGLVQAGGSLRLSCAASGSIFSPYAMGWYRQAPGKERELVAGISKSAGTTFYADSVKGRFTISRDNAKNTVYLQMNSLKPEDTAVYYCAADYYYPAWYLSDYWGQGTQVTVSS | low polyreactivity
15 | QVQLVESGGGVVQAGGSLRLSCAASGRTFRPYAMGWYRQAPGKERELVAAIDSSGTSTYYADSVKGRFTISRDNAKNSVYLQMNSLKPEDTAVYYCAKAWPDHWYSRYDYWGQGTQVTVSS | low polyreactivity
16 | QVQLVESGGGLVQAGGSLRLSCAASGRTYIVNVMGWYRQAPGKERELVAAINWSTGRTYYADSVKGRFTISRDNAKNTVYLQMNSLKPEDTAVYYCAAEEFDSFWWGYYEMDYWGQGTQVTVSS | high polyreactivity
17 | QVQLVESGGGLVQAGGSLRLSCAASGSIFFGYGMGWYRQAPGKERELVATITTSGGTYYADSVKGRFTISRDNAKNTVYLQMNSLKPEDTAVYYCAATAAALDGNTIMYYWGQGTQVTVSS | low polyreactivity
18 | QVQLVESGGGLVQAGGSLRFSCAASGITFKGYAMGWYRQAPGKERELVAAINSRGGTYADSVKGRFTISRDNAKNTVYLQMNSLKPEDTAVYYCAVTAVRPLPLDSGYDYWGQGTQVTVSS | low polyreactivity
19 | QVQLQERAAWCRRAGSLRLSCAASGNISDYYFMGWYRQAPGKERELVAAIAPGSNTYYADSVKGRFTISRDNAKNTVYLQMNSLKPEDTAVCFCAANSTQYSWFDYWGQGTQVPVSS | low polyreactivity
20 | QVQLVESGGGLVQAGGSLRLSCAASGSTFPYYAMGWYRQAPGKERELVAVITSSGSRTYYADSVKGRFTISRDNAKNTVYLPMNSLKPEDTAVYYCARDTRYYLPYRSQYDYWGQGTQVTVSS | high polyreactivity
21 | QVQLVESGGGLVQAGGSLRLTCAASGSTFYHNAMGWYRQAPGKERELVAAITTSGGSTYYADSVKGRFTISRDNAKNTVYLQMNSLKPVDTAVYYCNVYRPYLAPYDYWGQGTQVTVSS | low polyreactivity
22 | QVQLVESGGGLVQAGGSLRLSCAASGFTFRGYAMGWYRQAPGKERELVAAISRGGNTKYADSVKGRFTISRDNAKNTVYLQMNSLKPEDTAVYYCASYYFSSSHRYGYWGQGTQVTVSS | high polyreactivity

Row | Sequence | polyreactivity (PSR sort gate)
23 | QVQLEESGGGLVQAGVSLRLSCAASGSTFGYYAMGWSRQAPGKERELVAAITSGGTTNYADYVKGRFTISRYNEKNTVYLQMYSLKPEDTAVYYCNAVGTFVRYWTDGRDGVTYDFWGQGTQVTVSS | low polyreactivity
24 | QVQLVVSGGGLVQAGGSLRLSCATTGRIFHRSAMGWYRQAPGKERGLVAGISSSGGSTYADSVKGRFTISRDNAKNTVYLQMNSLKPEDTAVYYCAAKWRHSGGGMYYWGQGTQVTVSS | high polyreactivity
25 | QVQLVESGGGLVQAGGSLRISCAPSGSIFSDYAMGWYRQAPGKERELVATISSSGSTNYADSVKGRFTISRDNAKNTVYLQMNSLKPEDTAVYYCAAARLFAMDYWGQGTQVTVSS | low polyreactivity
26 | QVQLVESGGGLVQAGGSLRLSCAASGSIFARNAMGWYRQAPGKERELVAAISRSGGITYYADSVKGRFTISRDNAKNTVYLQMNSLKPEDTAVYYCATVGYYKGNQVLPAKDGDSWGQGTQVTVSS | high polyreactivity
27 | QVQLVESGGGLVQAGGSLRLSCAASGRTLSLYAMGWYRQAPGKERELVATISKSGGSTDYADSVKGRFTISRDNAKNTVYLQMNSLKPEDTAVYYCAADANSWFTSYQVYGSEFDYWGQGTQVTVSS | low polyreactivity
28 | QVHLVESGGGLVQAGGSLRLSCSASGFTFGSNAMGWYRQAPGKERELVAAINYSGLRTYYADSVKGRFTISRDNAKNTVYLQMNSLKPEDTAVYDCAARTSIVTRLRYGYWGQGTQVTVSS | high polyreactivity
29 | QVQLVESGGGLVQAGGSLRLSCAASGFTFSDYAMGWYRQAPGKDRELVATISNGDSPYYADSVKGRFTISRDNAKNTVYVQMNSLKPVDTAVNYCATDQPYGADPSNDFDYWGQGTQVTVSS | low polyreactivity
30 | QFQLVESGGGLVQAGGSLPLSCAASGSIFLWTAMGWYRQAPGKERELVAAITLRGGSTYYADSLKGRFTISRDNAKYAVYLQLNSLKPEDTAVFYCAADVFLLYDYWGQGTQVTVSS | low polyreactivity
31 | QDQLVESGGGLVQAGGSLRLSCAASGITFFVYDMGWYRQAPGTERELVAAITWSGDSTYYADSVKGRFTISRDNAKNTVYLQMNSLKPEDTAVYYCAAQFDVYYSRQPYDYNRSGYWGQGTQVTVSS | low polyreactivity
32 | QLQLVESGGGLVQAGGRLRLSCAASGGIFQTNAMGWYRQAPGKERELVAAISRSAGRTYYADSVKGRFTISRDNAKNTVYLQMTSLKPEDTAVYYCNALRGRFRFDYWGQGTQVTVSS | high polyreactivity
33 | QVQLVESWGGFVQAGGSLRLSCAASGSIFKGYVMGWYRQAPGKERELVAAISGSGGSTYYADSVKGRFTISRDNAKNTVYIQMNSLKPEDTAVYYCAARYRYWGGSGFKGFDYWGQGTQVTVSS | high polyreactivity
34 | QVQLVESGGGLVQAGGSLRLSCAASGSTFAVYAMGWYRQEPGKERELVATITGSGGSTYYADSVKGRFTISRDNAKNTVYLQMNSLKPEDTAVYYCAAEVVAWSLYEDFKTYDYWGQGTQVTVSS | low polyreactivity
35 | QVQLVESGGGLVQAGGSLRLSCDASGYIFSANAMGWYRQSPGKERELVAAITSSGGSTYYADSVKGRFTISRDNAKNTVYLQMNSLKPEDTAVYYCAAYSIYYRSGYPSRYRYYYWGQGTQVTVSS | high polyreactivity
36 | QVQLVESGGGLVQAGGSLRLSCAASGFIFRYNAMGWYRQAPGKERELVAAISSGGSTNYADSVKGRFTISRDNAKNTVYLQMNSLKPEDTAVYYCAADVEQYYPLLTFDFWGQGTQVTVSS | low polyreactivity
37 | QVQLVESGGGLVQAGGSLRLSCAASGRIFVKNAMGWYRQAPGKERELVATISSGGNTNYADSVKGRFTISRDNAKNTVYLQLNSLKPEDTAVYYCAAVWDLGDYELPYDYWGQGTQVTVSS | low polyreactivity
38 | QVQVVESGGGLVQAGCSLRLSCAASGSTFQANDMGLYRQAPGKERELVAAISTGGSSTYYADSVKGRFTISRDNEKNTFFLQMNSLKPEDTAVYYCAVDGLGGREGYWGQGTQVTVSS | high polyreactivity
39 | QVQLVESGGGLVQAGGSLRLSCAASGFTFPYYAMGWYRQAPGKERELVARISSGGSTNYADSVKGRFTISRDNAMNTVYLEMNSLKPEDTAVYYCNKGWYYRPRFYSSSDYWGQGTQVTVSS | high polyreactivity
40 | QVQLVESGGGLVQAGGSLRLSCAASGRTFRINAMGWYRQAPGKEREMVAAIRSRAGSTYYADSVKGRFTISRDNAKNTVYLQMYSLKPEDTAVYYCAAKFPFDVDYWGQGTQVTVSS | high polyreactivity
41 | QGQLVESGGGLVQAGGSLRLSCAASGRTFYRYAMGWYRQAPGNERELVASMNRGGSTYYADSVKGRFTFSRDNAKNTVYLQMNSLKPEDTAVYYCACYCYCYRGQGTQVTVSS | low polyreactivity
42 | QVQLVESGGGLVQAGGTLRLSCAASGRIFGYNDMGWYRQAPGKERELVAAINRTGGSTYYADSVKGRFTISRDNAKNTVYLQMNSLKPEDTAVYYCNADARTKWVQTHTDFITDYDYWGQGTQVTVSS | low polyreactivity
43 | QVQLVESGGGLVQAGGSLRLSCAASGSIFGTYAMGWYRQAPGKERELVARISGGGSTYYADSVKGRFTISRDNAKNTVYLQMNSLKPEDTAVYYCNVRKWAYCSHAIIYNYWGQGTQVTVSS | high polyreactivity

From the nanobody polyreactivity screen of Harvey et al. (2022)
